Laboratory results as given in patent US20140141093A1 (DOMANTIS, published 2014).
One block for each binder: values may come before it.

What was measured:
[1] = biological target: T1, TNFR1-FC fusion (human, UniProt P19438 30-211, limits assumed); experiment: human TNFR1 receptor binding assay: inhibition of TNF-alpha (10 ng/ml) binding to bead-captured TNFR1-Fc, four replicates
T1 construct: not shown: Fc part (captured by goat anti-human IgG)
T1 sequence (looked up): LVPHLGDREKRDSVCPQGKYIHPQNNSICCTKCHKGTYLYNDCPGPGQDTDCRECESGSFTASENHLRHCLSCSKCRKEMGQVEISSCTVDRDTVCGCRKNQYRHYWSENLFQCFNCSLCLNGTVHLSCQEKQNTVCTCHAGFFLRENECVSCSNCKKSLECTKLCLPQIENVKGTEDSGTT

[2] = biological target: T2, human VEGF (human, UniProt P15692-4 27-191, biotinylated in selections and on the SA sensorchip); experiment: RBA assay (footnote †); value read as that of the Fc fusion
T2 construct: also called hVEGF; VEGFA
T2 sequence (P15692 other isoform, or with tags, fused parts or gaps limits assumed): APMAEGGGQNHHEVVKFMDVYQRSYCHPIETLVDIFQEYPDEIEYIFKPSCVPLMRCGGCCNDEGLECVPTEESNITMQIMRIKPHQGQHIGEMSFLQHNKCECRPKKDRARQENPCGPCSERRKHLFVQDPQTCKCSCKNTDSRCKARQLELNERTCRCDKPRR

IC50 (read off the curve) [1]: ~0.08 nM
B1: DOM1h-131-206 (other)
VH: EVQLLESGGGLVQPGGSLRLSCAASGFTFAHETMVWVRQAPGKGLEWVSHIPPDGQDPFYADSVKGRFTISRDNSKNTLYLQMNSLRAEDTAVYHCALLPKRGPWFDYWGQGTLVTVSS
notes: Human VH dAb against TNFR1; also called GSK1995057A

Activity (nM), RBA assay [2]: 0.913 nM
B2: DOM15-10 Fc fusion (Fc fusion)
chain: DIQMTQSPSSLSASVGDRVTITCRASQWIGPELSWYQQKPGKAPKLLIYHTSILQSGVPSRFSGSGSGTDFTLTISSLQPEDFATYYCQQYMFQPRTFGQGTKVEIRR
notes: also called DMS1546; not shown: short peptide linker and human IgG1 Fc
